From article PMC12363196, “High level of carbapenem resistance and transmission ability of blaIMP-26 in multidrug-resistant Enterobacter xiangfangensis isolates from China” (mSystems, 2025)

What was measured:
Assay in all cases: purified protein
Settings in all cases: 50 mM HEPES pH 7.5, 250 mM NaCl, 100 µM ZnCl2, 37 °C, BSA 20 µg/mL in dilution buffer
[1] = test system: CC(C)(O/N=C(\C(=O)N[C@@H]1C(=O)N2C(C(=O)[O-])=C(C[n+]3ccccc3)CS[C@H]12)c1csc(N)n1)C(=O)O
[2] = test system: CO/N=C(\C(=O)N[C@@H]1C(=O)N2C(C(=O)O)=C(COC(C)=O)CS[C@H]12)c1csc(N)n1
[3] = test system: CO/N=C(\C(=O)N[C@@H]1C(=O)N2C(C(=O)[O-])=C(C[N+]3(C)CCCC3)CS[C@H]12)c1csc(N)n1
[4] = test system: C[C@@H](O)[C@H]1C(=O)N2C(C(=O)O)=C(SCCN=CN)C[C@H]12
[5] = test system: C[C@@H](O)[C@H]1C(=O)N2C(C(=O)O)=C(S[C@@H]3CN[C@H](C(=O)N(C)C)C3)[C@H](C)[C@H]12

IMP-26 (Pseudomonas aeruginosa) gave a Km [1] of 677.2 µM, a kcat [1] of 38.86 s⁻¹ and a kcat/Km [1] of 57000 M⁻¹ s⁻¹. The Km [2] was 192.1 µM, the kcat [2] was 31.92 s⁻¹ and the kcat/Km [2] was 166000 M⁻¹ s⁻¹. For the same substance, the Km [3] was 497.1 µM, the kcat [3] was 37.58 s⁻¹ and the kcat/Km [3] was 76000 M⁻¹ s⁻¹. The Km [4] was 932.6 µM, the kcat [4] was 159.51 s⁻¹ and the kcat/Km [4] was 171000 M⁻¹ s⁻¹. It also gave a Km [5] of 218.8 µM, a kcat [5] of 75.08 s⁻¹ and a kcat/Km [5] of 343000 M⁻¹ s⁻¹.
